Assays:
[1] = target: rar1_arath RAR1 (UniProt Q9SE33)
[2] = target: sgt1b_arath SGT1B (UniProt Q9SUT5)
Sequence of sgt1b_arath SGT1B (Q9SUT5 whole entry): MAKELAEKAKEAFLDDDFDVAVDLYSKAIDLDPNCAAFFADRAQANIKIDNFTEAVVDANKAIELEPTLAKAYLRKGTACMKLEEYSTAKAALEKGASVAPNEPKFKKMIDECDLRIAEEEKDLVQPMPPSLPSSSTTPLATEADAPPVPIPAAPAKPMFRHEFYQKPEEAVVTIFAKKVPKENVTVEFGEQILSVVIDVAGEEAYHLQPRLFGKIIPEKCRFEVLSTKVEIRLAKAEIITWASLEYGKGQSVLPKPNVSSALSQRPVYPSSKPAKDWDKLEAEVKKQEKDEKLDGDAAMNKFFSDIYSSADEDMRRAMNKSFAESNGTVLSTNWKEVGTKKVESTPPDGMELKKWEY

Sequence of rar1_arath RAR1 (Q9SE33 whole entry): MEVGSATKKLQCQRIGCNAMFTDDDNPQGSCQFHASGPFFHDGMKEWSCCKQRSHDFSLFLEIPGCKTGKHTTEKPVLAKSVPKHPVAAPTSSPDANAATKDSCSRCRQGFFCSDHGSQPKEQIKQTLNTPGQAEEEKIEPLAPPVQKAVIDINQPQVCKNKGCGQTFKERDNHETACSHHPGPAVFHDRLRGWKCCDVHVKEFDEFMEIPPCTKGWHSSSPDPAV
Sequence of Heat shock protein 90-2 (Arabidopsis thaliana (Mouse-ear cress)), P55737 G95E (P55737 whole entry G95E): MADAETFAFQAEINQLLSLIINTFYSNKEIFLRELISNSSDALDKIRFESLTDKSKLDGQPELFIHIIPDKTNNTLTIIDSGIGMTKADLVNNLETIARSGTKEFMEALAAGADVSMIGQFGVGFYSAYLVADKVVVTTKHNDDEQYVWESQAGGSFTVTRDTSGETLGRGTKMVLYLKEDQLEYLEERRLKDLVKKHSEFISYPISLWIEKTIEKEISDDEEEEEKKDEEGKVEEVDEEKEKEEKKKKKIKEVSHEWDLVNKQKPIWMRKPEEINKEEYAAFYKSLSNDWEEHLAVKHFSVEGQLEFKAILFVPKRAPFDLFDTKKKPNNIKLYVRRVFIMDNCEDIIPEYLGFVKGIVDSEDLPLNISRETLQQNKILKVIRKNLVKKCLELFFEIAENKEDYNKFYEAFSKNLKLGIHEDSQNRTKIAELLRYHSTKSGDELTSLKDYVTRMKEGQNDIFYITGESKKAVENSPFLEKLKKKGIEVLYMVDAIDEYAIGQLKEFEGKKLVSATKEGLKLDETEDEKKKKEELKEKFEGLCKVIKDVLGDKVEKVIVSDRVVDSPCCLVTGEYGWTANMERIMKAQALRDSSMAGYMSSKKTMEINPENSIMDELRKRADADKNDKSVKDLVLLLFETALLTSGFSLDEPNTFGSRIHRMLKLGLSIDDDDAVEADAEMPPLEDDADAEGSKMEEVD
Sequence of Heat shock protein 90-2 (Arabidopsis thaliana (Mouse-ear cress)), P55737 R337C (P55737 whole entry R337C): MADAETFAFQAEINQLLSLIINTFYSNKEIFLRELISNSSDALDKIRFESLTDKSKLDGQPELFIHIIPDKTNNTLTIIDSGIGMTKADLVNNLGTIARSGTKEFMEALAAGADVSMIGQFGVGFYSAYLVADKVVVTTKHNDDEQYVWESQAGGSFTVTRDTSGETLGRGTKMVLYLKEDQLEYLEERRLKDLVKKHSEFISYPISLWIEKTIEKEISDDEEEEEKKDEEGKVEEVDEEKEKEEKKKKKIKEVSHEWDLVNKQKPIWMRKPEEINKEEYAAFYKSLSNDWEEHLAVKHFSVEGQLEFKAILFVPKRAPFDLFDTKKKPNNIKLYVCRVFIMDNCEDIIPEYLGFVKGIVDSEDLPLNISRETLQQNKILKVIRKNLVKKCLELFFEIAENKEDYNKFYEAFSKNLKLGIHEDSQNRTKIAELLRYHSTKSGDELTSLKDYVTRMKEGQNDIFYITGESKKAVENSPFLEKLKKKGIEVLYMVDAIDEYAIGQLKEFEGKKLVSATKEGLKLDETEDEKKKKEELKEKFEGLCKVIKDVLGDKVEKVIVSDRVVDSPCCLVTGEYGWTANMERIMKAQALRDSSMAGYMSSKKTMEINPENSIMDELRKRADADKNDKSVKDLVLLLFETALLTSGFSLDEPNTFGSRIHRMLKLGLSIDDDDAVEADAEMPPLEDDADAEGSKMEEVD
Sequence of Heat shock protein 90-2 (Arabidopsis thaliana (Mouse-ear cress)), P55737 D80N (P55737 whole entry D80N): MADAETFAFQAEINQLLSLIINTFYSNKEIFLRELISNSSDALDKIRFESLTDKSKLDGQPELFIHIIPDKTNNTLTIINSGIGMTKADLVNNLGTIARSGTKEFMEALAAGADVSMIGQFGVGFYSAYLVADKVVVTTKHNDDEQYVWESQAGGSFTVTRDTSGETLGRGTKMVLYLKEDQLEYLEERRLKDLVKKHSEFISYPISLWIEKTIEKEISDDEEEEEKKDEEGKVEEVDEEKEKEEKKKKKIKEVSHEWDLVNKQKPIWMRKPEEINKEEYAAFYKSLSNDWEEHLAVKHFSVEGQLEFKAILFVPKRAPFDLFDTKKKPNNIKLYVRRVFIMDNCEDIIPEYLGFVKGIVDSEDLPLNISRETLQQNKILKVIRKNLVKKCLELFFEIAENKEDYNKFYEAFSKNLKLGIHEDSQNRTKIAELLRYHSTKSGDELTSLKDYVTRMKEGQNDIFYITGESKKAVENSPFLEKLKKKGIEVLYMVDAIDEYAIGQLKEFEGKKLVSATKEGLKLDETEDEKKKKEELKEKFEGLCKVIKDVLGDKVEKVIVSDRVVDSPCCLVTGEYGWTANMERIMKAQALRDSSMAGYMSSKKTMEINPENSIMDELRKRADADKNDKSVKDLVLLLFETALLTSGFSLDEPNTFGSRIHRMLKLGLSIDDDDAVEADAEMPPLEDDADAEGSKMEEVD
Sequence of Heat shock protein 90-2 (Arabidopsis thaliana (Mouse-ear cress)), P55737 A42T (P55737 whole entry A42T): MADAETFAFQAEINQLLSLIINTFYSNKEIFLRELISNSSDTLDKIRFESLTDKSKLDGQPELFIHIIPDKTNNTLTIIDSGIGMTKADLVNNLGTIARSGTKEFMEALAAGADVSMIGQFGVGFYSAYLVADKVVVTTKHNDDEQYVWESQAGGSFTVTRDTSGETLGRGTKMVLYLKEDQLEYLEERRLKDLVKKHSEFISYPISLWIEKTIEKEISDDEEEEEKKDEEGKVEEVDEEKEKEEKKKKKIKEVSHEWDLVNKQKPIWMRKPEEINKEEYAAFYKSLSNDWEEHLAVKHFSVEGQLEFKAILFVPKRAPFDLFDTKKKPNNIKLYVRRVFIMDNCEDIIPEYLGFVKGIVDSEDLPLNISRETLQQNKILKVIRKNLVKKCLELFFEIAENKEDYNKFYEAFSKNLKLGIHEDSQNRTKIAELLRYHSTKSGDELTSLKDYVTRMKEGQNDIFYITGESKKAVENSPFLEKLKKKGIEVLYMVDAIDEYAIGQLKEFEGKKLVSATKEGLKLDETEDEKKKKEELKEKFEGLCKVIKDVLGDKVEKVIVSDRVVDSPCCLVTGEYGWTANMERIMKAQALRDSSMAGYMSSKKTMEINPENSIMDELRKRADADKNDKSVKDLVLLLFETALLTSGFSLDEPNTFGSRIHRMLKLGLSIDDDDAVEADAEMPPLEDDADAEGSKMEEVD
Sequence of Heat shock protein 90-2 (Arabidopsis thaliana (Mouse-ear cress)), P55737 S100F (P55737 whole entry S100F): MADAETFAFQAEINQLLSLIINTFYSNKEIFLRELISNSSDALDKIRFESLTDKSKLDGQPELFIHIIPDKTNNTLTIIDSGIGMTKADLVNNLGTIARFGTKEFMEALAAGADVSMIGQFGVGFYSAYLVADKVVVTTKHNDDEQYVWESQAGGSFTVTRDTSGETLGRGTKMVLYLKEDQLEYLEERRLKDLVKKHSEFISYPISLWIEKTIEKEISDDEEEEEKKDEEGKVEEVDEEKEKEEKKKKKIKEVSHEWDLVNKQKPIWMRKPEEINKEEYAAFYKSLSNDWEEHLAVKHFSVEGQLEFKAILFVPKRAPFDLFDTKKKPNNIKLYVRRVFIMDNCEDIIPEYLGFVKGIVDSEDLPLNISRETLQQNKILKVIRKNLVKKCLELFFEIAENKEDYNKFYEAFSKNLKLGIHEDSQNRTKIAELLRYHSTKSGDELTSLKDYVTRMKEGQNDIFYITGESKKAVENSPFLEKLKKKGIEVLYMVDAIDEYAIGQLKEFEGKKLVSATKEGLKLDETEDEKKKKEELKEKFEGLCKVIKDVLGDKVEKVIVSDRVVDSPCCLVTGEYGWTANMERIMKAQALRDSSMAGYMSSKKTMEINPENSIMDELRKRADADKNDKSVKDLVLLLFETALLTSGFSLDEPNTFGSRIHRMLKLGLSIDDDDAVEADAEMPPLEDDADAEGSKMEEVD

effect of a mutation on the interaction [1]	effect of a mutation on the interaction [2]	Substance
disrupting interaction strength	disrupting interaction strength	Heat shock protein 90-2 (Arabidopsis thaliana (Mouse-ear cress)), P55737 D80N
	disrupting interaction strength	Heat shock protein 90-2 (Arabidopsis thaliana (Mouse-ear cress)), P55737 S100F

Second part, the substance before the results:

Substance	effect of a mutation on the interaction [1]	effect of a mutation on the interaction [2]
Heat shock protein 90-2 (Arabidopsis thaliana (Mouse-ear cress)), P55737 A42T	disrupting interaction strength	disrupting interaction strength
Heat shock protein 90-2 (Arabidopsis thaliana (Mouse-ear cress)), P55737 G95E	decreasing interaction strength	disrupting interaction strength
Heat shock protein 90-2 (Arabidopsis thaliana (Mouse-ear cress)), P55737 R337C	disrupting interaction strength	decreasing interaction strength
